This experiment concerns the target T1, interferon regulatory factor 3 (human (endogenous in THP-1)), Q14653.
T1 chain: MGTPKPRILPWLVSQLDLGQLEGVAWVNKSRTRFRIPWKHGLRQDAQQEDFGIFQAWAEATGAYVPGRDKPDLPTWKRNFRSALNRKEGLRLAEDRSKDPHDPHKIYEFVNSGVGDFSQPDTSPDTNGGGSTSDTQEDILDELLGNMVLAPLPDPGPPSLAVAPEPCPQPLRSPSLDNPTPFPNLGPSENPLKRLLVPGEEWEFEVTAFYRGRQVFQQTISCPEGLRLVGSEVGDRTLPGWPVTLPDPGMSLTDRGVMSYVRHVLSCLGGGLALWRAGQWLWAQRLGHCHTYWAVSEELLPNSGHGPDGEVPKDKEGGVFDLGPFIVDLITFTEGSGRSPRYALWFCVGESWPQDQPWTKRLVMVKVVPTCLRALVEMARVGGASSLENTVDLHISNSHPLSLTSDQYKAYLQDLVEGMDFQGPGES
The experiment can be described thus: native gel or EMSA. The note with it: remark: other sources report otherwise.

B1: interferon regulatory factor 3, Q14653 1-427 (natural protein)
chain: T1 chain
B1 gave a stoichiometry N of 2.

(Values after paper PMC10192046.)
